Data on three substances can be found in patent US8318488.

Experiment in all cases: cell-based or functional assay
Assay [1] deals with endothelin receptor A (ETA) (UniProt Q61614).
Assay [2] has as its target endothelin receptor B (ETB) (UniProt P48302).
Assay [3] concerns the target calcium/calmodulin-dependent protein phosphatase calcineurin.

Chain of endothelin receptor B (ETB) (P48302 27-442 limits assumed): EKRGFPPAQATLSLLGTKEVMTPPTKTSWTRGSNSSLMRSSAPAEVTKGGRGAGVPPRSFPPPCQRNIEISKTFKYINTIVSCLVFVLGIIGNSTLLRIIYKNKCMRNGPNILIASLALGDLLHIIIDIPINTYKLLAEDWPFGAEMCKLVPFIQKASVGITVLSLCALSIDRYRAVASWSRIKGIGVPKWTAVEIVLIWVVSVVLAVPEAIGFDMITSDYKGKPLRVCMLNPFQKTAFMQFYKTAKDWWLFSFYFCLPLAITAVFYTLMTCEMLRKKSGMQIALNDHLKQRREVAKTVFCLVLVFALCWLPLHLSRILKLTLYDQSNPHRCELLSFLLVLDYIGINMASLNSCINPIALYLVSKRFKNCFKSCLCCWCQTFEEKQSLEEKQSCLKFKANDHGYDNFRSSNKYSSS
Chain of endothelin receptor A (ETA) (Q61614 21-427 limits assumed): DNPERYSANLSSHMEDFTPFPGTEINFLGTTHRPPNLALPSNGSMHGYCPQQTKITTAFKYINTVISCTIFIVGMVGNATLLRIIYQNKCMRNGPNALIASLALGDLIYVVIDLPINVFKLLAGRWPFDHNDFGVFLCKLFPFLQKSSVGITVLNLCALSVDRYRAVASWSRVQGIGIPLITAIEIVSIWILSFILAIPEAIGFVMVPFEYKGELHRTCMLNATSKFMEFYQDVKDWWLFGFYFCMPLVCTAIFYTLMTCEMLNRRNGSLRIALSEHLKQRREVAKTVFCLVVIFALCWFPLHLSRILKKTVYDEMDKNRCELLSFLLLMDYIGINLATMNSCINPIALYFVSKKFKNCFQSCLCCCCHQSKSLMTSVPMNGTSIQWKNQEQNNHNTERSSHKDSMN

In the case of BQ-123 (peptide), in assay [1], the ANF expression (RT-PCR) after ET-1 stimulation, relative to ET-1 without compound (100%); BQ123 1 µM is 50% and the BNP expression (RT-PCR) after ET-1 stimulation, relative to ET-1 without compound (100%); BQ123 1 µM was determined as 60%.
In assay [2], BQ-788 (peptide) came in with an ANF expression (RT-PCR) after ET-1 stimulation, relative to ET-1 without compound (100%); BQ788 1 µM of 70% and a BNP expression (RT-PCR) after ET-1 stimulation, relative to ET-1 without compound (100%); BQ788 1 µM of 70%.
As to Cyclosporin A (peptide), in assay [3], the ANF expression (RT-PCR) after ET-1 stimulation, relative to ET-1 without compound (100%); cyclosporin A 1 µg/ml worked out at 70%; the ANF expression (RT-PCR) after PE stimulation, relative to PE without compound (100%); cyclosporin A 1 µg/ml worked out at 70%; the BNP expression (RT-PCR) after ET-1 stimulation, relative to ET-1 without compound (100%); cyclosporin A 1 µg/ml was 50%; the BNP expression (RT-PCR) after PE stimulation, relative to PE without compound (100%); cyclosporin A 1 µg/ml came to 70%.
